Measured values reported in patent publication US20210063414A1 (Dana-Farber, published 2021).

Legend:
[1] = target: T1, Integrin alpha-V (Itgav) of MLO-Y4 cells (mouse, UniProt P43406 31-1044); assay: DTSSP cross-linking on MLO-Y4 cells, his-tag pull-down, TMT mass spectrometry; ratio to his-tag adipsin control
T1 construct: whole, on cells
T1 sequence (looked up): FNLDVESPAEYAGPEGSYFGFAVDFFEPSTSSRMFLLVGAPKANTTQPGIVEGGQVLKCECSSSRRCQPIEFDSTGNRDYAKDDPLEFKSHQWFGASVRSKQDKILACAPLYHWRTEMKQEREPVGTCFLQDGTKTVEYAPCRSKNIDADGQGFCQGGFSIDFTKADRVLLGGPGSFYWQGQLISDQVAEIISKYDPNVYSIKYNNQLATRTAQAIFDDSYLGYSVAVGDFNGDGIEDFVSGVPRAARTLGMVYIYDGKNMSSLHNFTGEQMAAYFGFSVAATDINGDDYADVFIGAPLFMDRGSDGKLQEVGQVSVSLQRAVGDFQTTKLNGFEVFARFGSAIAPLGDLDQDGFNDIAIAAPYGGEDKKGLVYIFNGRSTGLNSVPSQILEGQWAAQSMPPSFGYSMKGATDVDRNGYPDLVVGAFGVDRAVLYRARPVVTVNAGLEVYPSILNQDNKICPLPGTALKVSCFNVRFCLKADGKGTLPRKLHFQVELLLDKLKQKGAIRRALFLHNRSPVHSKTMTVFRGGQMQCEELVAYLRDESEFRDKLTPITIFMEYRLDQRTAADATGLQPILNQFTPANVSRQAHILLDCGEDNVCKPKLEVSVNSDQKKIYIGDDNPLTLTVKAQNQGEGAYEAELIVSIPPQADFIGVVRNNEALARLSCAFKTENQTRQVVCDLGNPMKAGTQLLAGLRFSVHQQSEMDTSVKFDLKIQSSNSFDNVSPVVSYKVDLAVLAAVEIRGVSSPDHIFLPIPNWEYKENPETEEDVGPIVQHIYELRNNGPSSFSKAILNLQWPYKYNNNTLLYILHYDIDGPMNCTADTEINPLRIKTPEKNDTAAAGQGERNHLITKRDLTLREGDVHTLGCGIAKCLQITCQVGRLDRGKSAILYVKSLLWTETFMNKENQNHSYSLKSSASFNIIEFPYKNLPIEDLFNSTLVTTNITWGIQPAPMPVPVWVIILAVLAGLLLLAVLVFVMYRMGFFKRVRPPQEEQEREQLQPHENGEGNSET
Protocol: (§1) Cells were homogenized and immunoprecipitated using 6 his-tag agarose after treatment of DTSSP cross-linker. Immunoprecipitated proteins were labeled with TMT and analyzed by mass spectrometer.
(§2) A chemical cross-linker was then added and incubated with cells, and the ligands were re-purified with (presumptive) cellular proteins covalently attached. The cross-links were then reversed and the products were subjected to quantitative Mass Spectrometry (FIG. 2A).

[2] = target: T2, Integrin beta-5 (Itgb5) of MLO-Y4 cells (mouse, UniProt O70309 24-798); assay: as above
T2 construct: whole, on cells; also called ITB5_MOUSE
T2 sequence (looked up): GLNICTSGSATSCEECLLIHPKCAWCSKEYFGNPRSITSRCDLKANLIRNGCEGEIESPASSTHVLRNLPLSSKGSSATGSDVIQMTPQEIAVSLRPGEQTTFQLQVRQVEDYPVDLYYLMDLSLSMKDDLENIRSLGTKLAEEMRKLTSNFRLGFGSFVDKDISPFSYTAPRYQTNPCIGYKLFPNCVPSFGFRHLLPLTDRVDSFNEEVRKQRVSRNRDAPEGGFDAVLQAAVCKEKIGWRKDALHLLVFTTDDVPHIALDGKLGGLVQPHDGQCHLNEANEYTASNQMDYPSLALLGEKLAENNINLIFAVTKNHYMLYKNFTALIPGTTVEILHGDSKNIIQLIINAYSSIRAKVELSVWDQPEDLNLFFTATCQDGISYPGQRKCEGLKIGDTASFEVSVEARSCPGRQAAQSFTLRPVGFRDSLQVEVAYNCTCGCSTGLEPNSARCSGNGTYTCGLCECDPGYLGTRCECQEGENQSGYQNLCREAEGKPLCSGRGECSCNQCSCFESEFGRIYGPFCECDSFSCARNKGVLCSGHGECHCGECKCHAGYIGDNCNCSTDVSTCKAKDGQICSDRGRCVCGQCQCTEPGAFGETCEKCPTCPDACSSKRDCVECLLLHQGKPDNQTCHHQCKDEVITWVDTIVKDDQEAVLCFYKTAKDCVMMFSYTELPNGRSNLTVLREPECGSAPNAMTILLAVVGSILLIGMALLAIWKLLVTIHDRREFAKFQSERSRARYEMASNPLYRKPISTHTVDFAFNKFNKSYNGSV
Protocol: as §1, §2

[3] = target: T1, Integrin alpha-V (Itgav) of MLO-Y4 cells; assay: DTSSP cross-linking on MLO-Y4 cells, his-tag pull-down, TMT mass spectrometry; irisin channel
Protocol: as §1, §2

[4] = target: T3, Integrin beta-1 (Itgb1) of MLO-Y4 cells (mouse, UniProt P09055 21-798); assay: as above
T3 construct: whole, on cells; Endogenous protein of the mouse osteocyte-like cell line, cross-linked on intact cells; also called β1 integrin; integrin β1
T3 sequence (P09055 21-798): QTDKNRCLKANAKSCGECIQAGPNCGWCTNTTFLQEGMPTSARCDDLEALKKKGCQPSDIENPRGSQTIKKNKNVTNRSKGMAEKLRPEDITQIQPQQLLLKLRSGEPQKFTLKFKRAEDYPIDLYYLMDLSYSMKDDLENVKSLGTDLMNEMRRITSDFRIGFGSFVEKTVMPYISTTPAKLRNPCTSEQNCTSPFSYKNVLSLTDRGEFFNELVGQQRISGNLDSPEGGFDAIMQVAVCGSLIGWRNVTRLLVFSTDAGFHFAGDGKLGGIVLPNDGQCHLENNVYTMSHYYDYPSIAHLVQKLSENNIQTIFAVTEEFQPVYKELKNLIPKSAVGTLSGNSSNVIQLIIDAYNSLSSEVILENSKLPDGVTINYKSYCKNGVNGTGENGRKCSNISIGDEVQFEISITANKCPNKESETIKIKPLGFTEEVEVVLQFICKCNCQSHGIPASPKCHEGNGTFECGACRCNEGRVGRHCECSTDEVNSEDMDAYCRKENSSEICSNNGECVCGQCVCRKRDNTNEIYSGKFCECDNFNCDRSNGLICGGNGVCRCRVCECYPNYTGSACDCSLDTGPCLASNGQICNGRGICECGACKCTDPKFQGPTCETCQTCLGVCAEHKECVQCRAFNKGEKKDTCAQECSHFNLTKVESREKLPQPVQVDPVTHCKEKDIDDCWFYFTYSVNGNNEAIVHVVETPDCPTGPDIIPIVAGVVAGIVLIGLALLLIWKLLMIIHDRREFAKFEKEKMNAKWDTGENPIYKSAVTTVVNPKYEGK
Protocol: as §1, §2

[5] = target: T2, Integrin beta-5 (Itgb5) of MLO-Y4 cells; assay: as above
Protocol: as §1, §2

[6] = target: T3, Integrin beta-1 (Itgb1) of MLO-Y4 cells; assay: DTSSP cross-linking of his-tag ligand on MLO-Y4 cells, his-tag pull-down, TMT quantitative mass spectrometry; ratio to his-tag adipsin control
Protocol: as §1, §2

irisin/adipsin (TMT ratio) [1]: 1.11 | irisin/adipsin (TMT ratio) [2]: 1.45 | summed signal-to-noise value for TMT channel [3]: 60.6 | summed signal-to-noise value for TMT channel [4]: 858 | summed signal-to-noise value for TMT channel [5]: 215 | irsin/adipsin (TMT ratio) [6]: 3.44
B1: His-tag recombinant irisin (irisin (human/mouse) with a C-terminal 10 his tag, produced in HEK293 cells) (ligand)
chain: DSPSAPVNVTVRHLKANSAVVSWDVLEDEVVIGFAISQQKKDVRMLRFIQEVNTTTRSCALWDLEEDTEYIVHVQAISIQGQSPASEPVLFKTPREAEKMASKNKDEVTMKE
notes: Made in mammalian cells, glycosylated; Used in cell culture and cross-linking experiments; also called 10 His-tag irisin; his-tag irisin; not shown: C-terminal 10 his tag
